The NTF2 design screens of Basanta et al. (2020)

Assay: protease stability score; higher = more stable; yeast display proteolysis, trypsin and chymotrypsin;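 further: log10 excess protease needed over predicted unfolded state with 0 meaning unfolded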

Q: Which protease stability score does the source give for “DDEALRVYQEVLEAWKHGDEDRLRQLLDPNVSIDVGDKDVHGREDYVTKMVRKARELSFHFEHVHVDHDGDKATIQMVYVIDQNGEPDRTANNVKVDVQNGKIKEIRVSSDR” here?
A: The protease stability score was 0.622.

Q: Which protease stability score does the source give for “DDKHAEEVAELMTRNNFKQLAHQADPNVKIVVGEKKWHGREQMRTFMKILTKRVDHLNIQSYDVDNGRVKIDYVVNIDGQEIHVRVEIEFKNGRIQRYVLRATSDENQKELNKALS” here?
A: Its protease stability score is 0.08.

Q: With “DDRDRKKQMSKLIEIFKEGDPRKWMELLDENARIQIGDTRIRGREHASDWLKKLRDHVDSISIHDMEVDGNHIRVVIEVVIDGRSAVYKFVVHLKNGKVKHVDVSATSKEHENNMSR” as the sequence, how does the protease stability score read?
A: The protease stability score was 1.5.

Q: With “DEEKLEELAEEILQMLQTGDPDQARRMADEDVRAEYGDKQYTGKERLVEVVRKLKDRADHARINSFEVEGENIVADFVMVVDGQERRVRMTARVENGRIKEVRVKTS” as the sequence, how does the protease stability score read?
A: The protease stability score was 0.96.

Q: Which protease stability score does the source give for “DEKNDRVLRRVMEAIHRGDPDKIHNQLDPNVKAEVGDKRFHGMEHIVEQVKRNWDNMRMRMKDVTVEDHNGQANAKVTYEVTENGQPKRAHVTVQAHAHDGRLTSVTYDTHE” here?
A: The protease stability score was -0.371.

Q: With “DEEQNTRFHRMLEDLKTGNEERVQDYMDPNVKVRIGNNVLDGREHAATHMVQLNREIRFHIHNFTVQVHNGRLDIKANADADVNGKPIKFSYERYAILHNGTIKRMREQFDEHLKRQLDR” as the sequence, how does the protease stability score read?
A: The protease stability score was -0.013.

Q: For “DEEDAKVLKQVLENVESGDSKSAETLLDKDVKFVIGDKVLHGRTQYVDRVRRETKRMRVKRQVQHYEVNNGRVHMTIDIQYDIDGKPLRDQITLTAEFHNGRMQSLEVKMDRDFKRKVDK”, which protease stability score is on record?
A: Its protease stability score is 0.313.

Q: With “DEDAAKDYETIVKQQESGDEDKVRQNVDPNAKWHIGEKKVHGRESLANEVHRVRRQMNERMEVKTVKDQGDKANVEMRVVQQHNGEPKDYTMQVDVHAHNGRLREVKATEQS” as the sequence, how does the protease stability score read?
A: The protease stability score was -0.388.

Q: Which protease stability score does the source give for “DEEKQAEDFFKEQYEIFRTGDQNREKDMVDPNANVNVGEYRYHGSKDLMKLMRQLRERVDHVQVTLRSINVKNGKAFIHVEEKFKVNGRVDTDRYVIVLSNHNGKWLLVTIQRG” here?
A: The protease stability score was 0.749.

Q: Which protease stability score does the source give for “DEEKRKHAREILKVEETGNPDDLKELFDPNAKFEYGDKTFHGMTDFRQHHERVRKEMHIDIKSVSVSVHNGQAQVDVQYEHEHNGRPDSKRANRTFDIRNGRVQSATQKDDQ” here?
A: Its protease stability score is -0.537.

Q: Which protease stability score does the source give for “DEKKVKEIAKKAFEYAVKGNEEQLQKLVKPNVDYEYVDEKYEGEDVVKKMVRLLKKVGAEVKIKRYEVKGDTVKADFDYNKGDKTVRTTAEVVYNGDKITQARLELTDEVKKIMHQG” here?
A: Its protease stability score is 0.681.

Q: For “DERARNVLKRIMHALRENNEEEFKKNADPNVRIHVGDKQYHGREDAARKIMTTLKSMKERIDVKSVDVEGDQIELHADVQVEENGQPDTKEIRVHADIQGDKMRSMKVDDTK”, which protease stability score is on record?
A: Its protease stability score is -0.308.

Q: For “DEHKIAKKLADTVMSLMKTGNFDQLAKQADPNVKIEIGDTTIHGREELVKTQKRLNDQIDHVDVRVNKVQMHGDKVNIDMDFVINVNGKNERRKLTVRAKVHNGRAIITEIRYG”, which protease stability score is on record?
A: The protease stability score was 1.01.

Q: For “DDTLKRRISELLRAEKHNDPDKINRLFDPNAHIEYGDHRIHGREELKRQITKRMKELRFRIDRVDLEVKGNHARLRIDMTQNHNGTPRRMILDVKINASNGTIHSVDVKLDG”, which protease stability score is on record?
A: Its protease stability score is 0.297.

Q: With “DEEEQKNRAKNAADAFQTGDPDQMVEMVDKDVRVQVGDKRYHGREVARTVLDEMQQHIDHIHVKNYNVSGNTVEIRIKANINGRDVEINIHIEMHNGRVKEVKFNPKVADAAKR” as the sequence, how does the protease stability score read?
A: Its protease stability score is 0.25.

Q: With “DEEKLRKMVETLIQAVQNGNLEKIRQMVKENVEFTLGDKTYKGQEDALKIVKHLQQVGAEAHVERQEITGDEAKVKTQWHVGDHTMEVEVVYYVRDDKVEKVEINWSEEAKKAIKAG” as the sequence, how does the protease stability score read?
A: The protease stability score was 1.17.

Q: With “DEQEQAEELAKKMMENMETGDFDKRANQADPDARMEIGDKDVRGRETIASHQRELSDHIDHANATVLEVRVSNGDVEVRMQFRVQHNGRSRQEERIINATISGDKMRIKEFTQS” as the sequence, how does the protease stability score read?
A: Its protease stability score is -0.116.

Q: Which protease stability score does the source give for “DDEQINEFVKVMKTNDFKRLMDQADPNVSVSIGNFTVKGDKQAQKAARDLEEQADHIQIDSLTAHDGRLDVTLQMVFNGRDIRMSIKAEAHNGRLKSMKFQATSEEIEKILDEVLR” here?
A: Its protease stability score is -0.142.

Q: For “DDHAADVMRKWFEALSSGNPDQAKKNLDPNAKVQIGDKTLHGREQVSQHVREQKEEIRFEIQSVDVRKEPGQVTVTMVYVSHFNGQPRRDTDTFFADVHGDKIKSVHIRVDEKQKQRERD”, which protease stability score is on record?
A: Its protease stability score is -0.495.

Q: For “DDEKTRDLLRKAMRAFITGDPDTLRHLFDKDARARYGDKEVRGREQIQHQLREIRSTVDHIDVKDMEVQGNHATLSLSLVVNGREVKVRVKIVVHNGRAQSVTMDPHDIRKLNS”, which protease stability score is on record?
A: The protease stability score was 1.29.

Q: With “DEEHLLSRLAKEFWEDWKQGDPNKASKQADKDVHVQIGDKEYHGREHLERLFKEVKKDVDHNTSRITDLKVDENHIDLKVSFSMNVNGQNITMVVDVKMRIVNGHAKAVDIKYK” as the sequence, how does the protease stability score read?
A: Its protease stability score is 1.37.

Q: For “DEETIRHEARKFQEDMKDGNHDEAVKYAPPNVKIQIGDKTFHGREQMKRFFKELRDEIDHVDLEHVTFHNGRLRVEVRFKINGQDFQVVFYFNYHNGQIENFKVQYRNEEEQQKVEG”, which protease stability score is on record?
A: The protease stability score was 0.182.

Q: Which protease stability score does the source give for “DEELRKQAEEVMKAWQHGDEKTYMDLFDPNAKWEYGDDNITGRENMSDYMRKVRKEIRVHVQSVEVRAHNGRLEVVATEEREHNGRPDTVTVIMEAKAHNGKIQVVRVEERQ” here?
A: The protease stability score was 0.404.

Q: With “DERHNKQWNKELIKIWTDGDHKKFSEMLDKDVQIQVGDKEYHGREEIVRQYKTLMDRADHFEVKRYEVKGNDITIIFTFQVNGRRDQVRVVFVIENGHVKKITMDKK” as the sequence, how does the protease stability score read?
A: The protease stability score was 1.42.

Q: For “DEKQVHKMARQLVKALEHNDPQKVADLVDENVRASIGDTEYHGREHVKKAIKQMVDSIDHMRVRTVTAHNGTIDIDFQVVVNGRTERYQMRAEVHNGRIQSLRVDKR”, which protease stability score is on record?
A: Its protease stability score is 2.02.

Q: With “DEDDKQRHAEKYAKLWQEGNEDELQKQMDPNAKVVVGEKRLKGREQIKKWLEEWRKHADEVQVISVSVEGERLVIRFRANINGKTYHDTQTMIYDNGEIQDVRFDPKWLHDLKR” as the sequence, how does the protease stability score read?
A: The protease stability score was 0.625.

Q: With “DEKKVREFMERLFKAAENGNKDELRKVLMPNVKYQYVDKEKEGEEVAKEVAKAVKKVGAEIKKQEERVKGDTVEAVFQYKQGDTTVQTTVQIKYEGDKAKEVRVKLSDEVKKIVHRG” as the sequence, how does the protease stability score read?
A: Its protease stability score is -0.079.

Q: For “DERDAKKRIKDMIEALHTGDPDEFKRNLPPNARLEYGDKRVHGREQLAREVEKERKRFDHVEVKHIKVDNGRVHVELDLNVNGRTETRELVFNVSNGRVEEVHIRVP”, which protease stability score is on record?
A: The protease stability score was -0.186.

Q: For “DEEQMKKVVEKLVQALRNGNTDEIVRMVKEDVTFKLSDETYRGQEDVRKMAKQLQDKGNKMELKHKEAKGDEAEVVTVWHVGDKTAKLKVRYVVKDDKVEKVQADWSEEVVKAYKHG”, which protease stability score is on record?
A: The protease stability score was 0.122.

Q: With “DEKTKAKQLADTLKRLAESGDFVRIAQLFDENARLNYGDKTVHGREQAEDQAKKIHDQIDHMELELKSVSVNENSVQISMEVVWHHNGNHHRFEVVVRIDVDENKNRARNADYQ” as the sequence, how does the protease stability score read?
A: Its protease stability score is 0.921.

Q: With “DEDLKQQFDELVEIKKNGDEDRLVEQADENVKAQVGDKDVHGMKEIAHNIRHTVERIRVEIKSMEVDAQGNRVHVENDFVENNNGKPHRKVVDMKFIFHNGTLKSYTERDDK” as the sequence, how does the protease stability score read?
A: The protease stability score was -0.608.

Q: For “DQEDLKHLANVLRTGDWDRLRDLFDENARVKIGDKEVHGKEDAKKLAEQLKRSIDHMKISTWSITNGVLEMHFRVNVNGKTYEVQMELHAHNGRIKSMELHYRNREVKHVIKEMLD”, which protease stability score is on record?
A: Its protease stability score is 1.08.

Q: With “DHHDRKLFKHLITALRDGDEDKVKKNVDPNVKIDIGDTTWNGREQWAKDVREKREEMRVDIKLKRLTASNGRVTAKLRVRNKHDGRPHQHEFTVEFRRSNGRWKEIHVDDDK” as the sequence, how does the protease stability score read?
A: Its protease stability score is -0.008.

Q: Which protease stability score does the source give for “DETETMEQMIQDLHRALQQGDHETVKELIPPDAEMQIGDKTWHGKEQVARHLVEHAQTADHIDIDIKSIKIEGNKLVVNLKVVYDRNGHRETQTYELMVDVNNGEFRIVEQRQP” here?
A: The protease stability score was 0.921.

Q: With “DEEEAQDVLQEVFKAVSRGDEDRAEQLADPNAKAEYGDKSYHGKKVIKEAVRRMSEQADHFEFKHIDHDEGRVVFDMEIEFNGQTFKVKVKAQAHNGRAQNFKFQFRSEDDLERLQS” as the sequence, how does the protease stability score read?
A: The protease stability score was -0.23.

Q: With “DEKKLHELLLKMVQYYVSGHTEKVKEMGKDDVNLNAGDYTYHGVEQVATVADRMRQYGVKLEVKNRRQEGDRLEVEVEFHVGGQTVTVTFKVKADGGKVDEMRIDFSEEADKMARKG” as the sequence, how does the protease stability score read?
A: Its protease stability score is -0.157.
